system: Escherichia coli TOP10; assay: shrunken log2 fold change of peptide-encoding DNA abundance (4.5 h post-induction vs induction); higher = less antimicrobial activity (less host growth inhibition); conditions: time post-induction: 4.5 h; library: site-saturation at positions 5, 18, 19, 20
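Further: peptides expressed intracellularly from a pBAD plasmid library in pooled LB shake-flask culture, induced with 0.3% L-arabinose, DNA abundance read by NGS, three biological replicates, DESeq2 with apeglm shrinkage.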

Point of comparison: RRIRPRPPRLPRPRPRPIHVPRP, “shrunken log2 fold change” value -0.351. Against it:
- RRIRTRPPRLPRPRPRPWAHPRP — higher, -0.0917
- RRIRMRPPRLPRPRPRPLTQPRP — higher, 0.175
- RRIRFRPPRLPRPRPRPMTLPRP — higher, -0.107
- RRIRLRPPRLPRPRPRPSLHPRP — within 0.2 log units, -0.471
- RRIRARPPRLPRPRPRPQYPPRP — within 0.2 log units, -0.414
- RRIRHRPPRLPRPRPRPIMIPRP — within 0.2 log units, -0.192
- RRIRDRPPRLPRPRPRPQFTPRP — higher, 0.0284
- RRIRDRPPRLPRPRPRPPRIPRP — higher, 0.185
- RRIRPRPPRLPRPRPRPWRKPRP — higher, 0.0228
- RRIRIRPPRLPRPRPRPTAPPRP — higher, 0.0608
- RRIRTRPPRLPRPRPRPNTDPRP — lower, -0.615
- RRIRKRPPRLPRPRPRPAEQPRP — higher, 0.452
- RRIRHRPPRLPRPRPRPLTAPRP — higher, -0.0931
- RRIRNRPPRLPRPRPRPWMCPRP — lower, -1.23
- RRIRKRPPRLPRPRPRPSDMPRP — higher, 0.0199
- RRIRWRPPRLPRPRPRPLRRPRP — higher, 0.587
- RRIRTRPPRLPRPRPRPYFYPRP — lower, -0.842
- RRIRPRPPRLPRPRPRPRYEPRP — higher, -0.0954
- RRIRPRPPRLPRPRPRPQSIPRP — higher, -0.105
- RRIRMRPPRLPRPRPRPDKVPRP — higher, 0.359
- RRIRWRPPRLPRPRPRPEFRPRP — higher, 0.422
- RRIRRRPPRLPRPRPRPDDRPRP — higher, 0.0215
- RRIRIRPPRLPRPRPRPHFFPRP — within 0.2 log units, -0.237
- RRIRIRPPRLPRPRPRPFMIPRP — lower, -0.73
- RRIRIRPPRLPRPRPRPLNHPRP — within 0.2 log units, -0.458
- RRIRQRPPRLPRPRPRPWHIPRP — higher, -0.00133
- RRIRDRPPRLPRPRPRPSFRPRP — within 0.2 log units, -0.198
- RRIRQRPPRLPRPRPRPMEQPRP — higher, -0.074
- RRIRCRPPRLPRPRPRPLACPRP — within 0.2 log units, -0.236
- RRIRFRPPRLPRPRPRPFINPRP — lower, -0.874
- RRIRLRPPRLPRPRPRPRKYPRP — lower, -0.882
- RRIRYRPPRLPRPRPRPAFCPRP — higher, -0.1
- RRIRQRPPRLPRPRPRPSKEPRP — within 0.2 log units, -0.371
- RRIRVRPPRLPRPRPRPDPGPRP — within 0.2 log units, -0.321
- RRIRSRPPRLPRPRPRPGYAPRP — higher, 0.111
- RRIRTRPPRLPRPRPRPIFTPRP — higher, -0.0602
- RRIRWRPPRLPRPRPRPVGKPRP — higher, 0.107
- RRIRTRPPRLPRPRPRPGEYPRP — within 0.2 log units, -0.194
- RRIRRRPPRLPRPRPRPWKMPRP — higher, -0.00577
- RRIRHRPPRLPRPRPRPIFEPRP — higher, -0.0251
- RRIRHRPPRLPRPRPRPRMSPRP — higher, -0.0693
- RRIRPRPPRLPRPRPRPPEVPRP — higher, -0.0265
- RRIRTRPPRLPRPRPRPGSHPRP — within 0.2 log units, -0.336
- RRIRSRPPRLPRPRPRPQRNPRP — higher, 0.104
- RRIRQRPPRLPRPRPRPRKFPRP — higher, 0.214
- RRIRSRPPRLPRPRPRPWNKPRP — higher, -0.0158
- RRIRPRPPRLPRPRPRPGRQPRP — higher, 0.742
- RRIRFRPPRLPRPRPRPEHNPRP — within 0.2 log units, -0.489
- RRIRQRPPRLPRPRPRPQQAPRP — higher, -0.0512
- RRIRWRPPRLPRPRPRPAYMPRP — within 0.2 log units, -0.205
- RRIRWRPPRLPRPRPRPLQYPRP — higher, -0.133
- RRIRIRPPRLPRPRPRPGDMPRP — lower, -0.763
- RRIRPRPPRLPRPRPRPTGRPRP — higher, 0.459
- RRIRPRPPRLPRPRPRPSFYPRP — within 0.2 log units, -0.303
- RRIRFRPPRLPRPRPRPINTPRP — lower, -0.761
- RRIRKRPPRLPRPRPRPHTGPRP — higher, -0.0786
- RRIRFRPPRLPRPRPRPRTDPRP — higher, -0.0313
- RRIRVRPPRLPRPRPRPECHPRP — higher, 0.241
- RRIRIRPPRLPRPRPRPRWFPRP — higher, 0.555
- RRIRSRPPRLPRPRPRPLSEPRP — within 0.2 log units, -0.48
- RRIRERPPRLPRPRPRPDQRPRP — within 0.2 log units, -0.48
- RRIRSRPPRLPRPRPRPYTHPRP — lower, -1.3
- RRIRHRPPRLPRPRPRPWFWPRP — higher, 0.0142
- RRIRKRPPRLPRPRPRPALNPRP — higher, 0.589
- RRIRWRPPRLPRPRPRPNQWPRP — higher, 0.223
- RRIRWRPPRLPRPRPRPFMIPRP — lower, -0.798
- RRIRFRPPRLPRPRPRPDFQPRP — within 0.2 log units, -0.546
- RRIRCRPPRLPRPRPRPRCWPRP — higher, 0.502
- RRIRTRPPRLPRPRPRPNSAPRP — within 0.2 log units, -0.181
- RRIRCRPPRLPRPRPRPNCGPRP — within 0.2 log units, -0.281
- RRIRPRPPRLPRPRPRPPDKPRP — higher, 0.266
- RRIRERPPRLPRPRPRPGWDPRP — higher, 0.0203
- RRIRKRPPRLPRPRPRPGQLPRP — higher, 0.236
- RRIRERPPRLPRPRPRPTTCPRP — higher, 0.0164
- RRIRWRPPRLPRPRPRPISIPRP — within 0.2 log units, -0.234
- RRIRLRPPRLPRPRPRPFVNPRP — within 0.2 log units, -0.372
- RRIRFRPPRLPRPRPRPMEYPRP — higher, 0.0429
- RRIRHRPPRLPRPRPRPEENPRP — higher, 0.0237
- RRIRIRPPRLPRPRPRPGVRPRP — higher, 0.135
- RRIRVRPPRLPRPRPRPQPTPRP — higher, 0.408
- RRIRQRPPRLPRPRPRPDISPRP — higher, 0.0318
- RRIRHRPPRLPRPRPRPINPPRP — higher, -0.0815
- RRIRDRPPRLPRPRPRPKIDPRP — higher, 0.0277
- RRIRERPPRLPRPRPRPGLFPRP — higher, -0.0491
- RRIRWRPPRLPRPRPRPAHEPRP — higher, 0.1
- RRIRCRPPRLPRPRPRPVHTPRP — higher, 0.101
- RRIRWRPPRLPRPRPRPPNFPRP — higher, 0.015
- RRIRARPPRLPRPRPRPQESPRP — higher, 0.0266
- RRIRTRPPRLPRPRPRPIVVPRP — higher, -9.82e-05
- RRIRHRPPRLPRPRPRPNEEPRP — higher, -0.00146
